# Test results published in patent publication US7807788.
# Where “and” joins values, the source holds several entries; their conditions need not be identical. Equal values may be shown once.
# T1: IL-13 16 mer peptide 18
# T1 sequence (peptide, N-terminal biotin; C-terminal amide): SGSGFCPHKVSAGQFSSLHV
# T2: IL-13 16 mer peptide 8
# T2 sequence (peptide, N-terminal biotin; C-terminal amide): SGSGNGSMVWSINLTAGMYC
# T3: IL-13 16 mer peptide 38
# T3 sequence (peptide, N-terminal biotin; C-terminal amide): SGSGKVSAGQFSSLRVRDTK
# T4: IL-13 16 mer peptide 20
# T4 sequence (peptide, N-terminal biotin; C-terminal amide): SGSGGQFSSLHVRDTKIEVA
# T5: IL-13 16 mer peptide 37
# T5 sequence (peptide, N-terminal biotin; C-terminal amide): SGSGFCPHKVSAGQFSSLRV
# T6: IL-13 16 mer peptide 42
# T6 sequence (peptide, N-terminal biotin; C-terminal amide): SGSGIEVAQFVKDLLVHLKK
# T7: IL-13 16 mer peptide 23
# T7 sequence (peptide, N-terminal biotin; C-terminal amide): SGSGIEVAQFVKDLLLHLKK
# T8: IL-13 16 mer peptide 33
# T8 sequence (peptide, N-terminal biotin; C-terminal amide): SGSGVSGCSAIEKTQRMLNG
# T9: IL-13 16 mer peptide 5
# T9 sequence (peptide, N-terminal biotin; C-terminal amide): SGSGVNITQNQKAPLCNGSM
# T10: IL-13 16 mer peptide 9
# T10 sequence (peptide, N-terminal biotin; C-terminal amide): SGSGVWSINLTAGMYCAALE
# T11: IL-13 16 mer peptide 3
# T11 sequence (peptide, N-terminal biotin; C-terminal amide): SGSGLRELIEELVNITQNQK
# T12: IL-13 16 mer peptide 34
# T12 sequence (peptide, N-terminal biotin; C-terminal amide): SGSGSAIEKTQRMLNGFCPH
# T13: IL-13 16 mer peptide 39
# T13 sequence (peptide, N-terminal biotin; C-terminal amide): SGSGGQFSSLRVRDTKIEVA
# T14: IL-13 16 mer peptide 11
# T14 sequence (peptide, N-terminal biotin; C-terminal amide): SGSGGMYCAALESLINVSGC
# T15: IL-13 16 mer peptide 12
# T15 sequence (peptide, N-terminal biotin; C-terminal amide): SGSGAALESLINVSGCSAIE
# T16: IL-13 16 mer peptide 21
# T16 sequence (peptide, N-terminal biotin; C-terminal amide): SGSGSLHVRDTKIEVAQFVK
# T17: IL-13 16 mer peptide 41
# T17 sequence (peptide, by the resolver, N-terminal biotin on the SGSG spacer; C-terminal amide): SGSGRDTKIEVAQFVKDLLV
# T18: IL-13 16 mer peptide 27
# T18 sequence (peptide, N-terminal biotin; C-terminal amide): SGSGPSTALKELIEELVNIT
# T19: IL-13 16 mer peptide 36
# T19 sequence (peptide, N-terminal biotin; C-terminal amide): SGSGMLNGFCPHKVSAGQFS
# T20: IL-13 16 mer peptide 40
# T20 sequence (peptide, N-terminal biotin; C-terminal amide): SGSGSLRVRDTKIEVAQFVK
# T21: IL-13 16 mer peptide 29
# T21 sequence (peptide, N-terminal biotin; C-terminal amide): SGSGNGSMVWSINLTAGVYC
# T22: IL-13 16 mer peptide 17
# T22 sequence (peptide, N-terminal biotin; C-terminal amide): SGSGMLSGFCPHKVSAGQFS
# T23: IL-13 16 mer peptide 2
# T23 sequence (peptide, N-terminal biotin; C-terminal amide): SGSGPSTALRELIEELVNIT
# T24: IL-13 16 mer peptide 16
# T24 sequence (peptide, N-terminal biotin; C-terminal amide): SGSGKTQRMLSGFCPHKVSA
# T25: IL-13 16 mer peptide 31
# T25 sequence (peptide, N-terminal biotin; C-terminal amide): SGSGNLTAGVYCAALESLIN
# T26: IL-13 16 mer peptide 30
# T26 sequence (peptide, N-terminal biotin; C-terminal amide): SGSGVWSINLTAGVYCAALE
# T27: IL-13 16 mer peptide 14
# T27 sequence (peptide, N-terminal biotin; C-terminal amide): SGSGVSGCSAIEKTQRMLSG
# T28: IL-13 16 mer peptide 22
# T28 sequence (peptide, N-terminal biotin; C-terminal amide): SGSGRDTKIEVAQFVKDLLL
# T29: IL-13 16 mer peptide 15
# T29 sequence (peptide, N-terminal biotin; C-terminal amide): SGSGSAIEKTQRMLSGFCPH
# T30: IL-13 16 mer peptide 7
# T30 sequence (peptide, N-terminal biotin; C-terminal amide): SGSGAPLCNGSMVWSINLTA
# T31: IL-13 16 mer peptide 19
# T31 sequence (peptide, N-terminal biotin; C-terminal amide): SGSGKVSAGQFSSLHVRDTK
# T32: IL-13 16 mer peptide 28
# T32 sequence (peptide, N-terminal biotin; C-terminal amide): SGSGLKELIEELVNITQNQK
# T33: IL-13 16 mer peptide 10
# T33 sequence (peptide, N-terminal biotin; C-terminal amide): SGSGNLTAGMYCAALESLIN
# T34: IL-13 16 mer peptide 32
# T34 sequence (peptide, N-terminal biotin; C-terminal amide): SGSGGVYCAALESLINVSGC
# T35: IL-13 16 mer peptide 35
# T35 sequence (peptide, N-terminal biotin; C-terminal amide): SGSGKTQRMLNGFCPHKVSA
# T36: IL-13 16 mer peptide 6
# T36 sequence (peptide, N-terminal biotin; C-terminal amide): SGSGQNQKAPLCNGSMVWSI
# T37: IL-13 16 mer peptide 13
# T37 sequence (peptide, N-terminal biotin; C-terminal amide): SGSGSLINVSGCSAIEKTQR
# T38: IL-13 16 mer peptide 4
# T38 sequence (peptide, N-terminal biotin; C-terminal amide): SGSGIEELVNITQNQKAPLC
# How the values were obtained:
# IL-13 16 mer peptide 18 = target: T1, IL-13 16 mer peptide 18; assay: 16 mer peptide ELISA; peptide 18
# IL-13 16 mer peptide 8 = target: T2, IL-13 16 mer peptide 8; assay: 16 mer peptide ELISA; peptide 8
# IL-13 16 mer peptide 38 = target: T3, IL-13 16 mer peptide 38; assay: 16 mer peptide ELISA; peptide 38
# IL-13 16 mer peptide 20 = target: T4, IL-13 16 mer peptide 20; assay: 16 mer peptide ELISA; peptide 20
# IL-13 16 mer peptide 37 = target: T5, IL-13 16 mer peptide 37; assay: 16 mer peptide ELISA; peptide 37
# IL-13 16 mer peptide 42 = target: T6, IL-13 16 mer peptide 42; assay: 16 mer peptide ELISA; peptide 42
# IL-13 16 mer peptide 23 = target: T7, IL-13 16 mer peptide 23; assay: 16 mer peptide ELISA; peptide 23
# IL-13 16 mer peptide 33 = target: T8, IL-13 16 mer peptide 33; assay: 16 mer peptide ELISA; peptide 33
# IL-13 16 mer peptide 5 = target: T9, IL-13 16 mer peptide 5; assay: 16 mer peptide ELISA; peptide 5
# IL-13 16 mer peptide 9 = target: T10, IL-13 16 mer peptide 9; assay: 16 mer peptide ELISA; peptide 9
# IL-13 16 mer peptide 3 = target: T11, IL-13 16 mer peptide 3; assay: 16 mer peptide ELISA; peptide 3
# IL-13 16 mer peptide 34 = target: T12, IL-13 16 mer peptide 34; assay: 16 mer peptide ELISA; peptide 34
# IL-13 16 mer peptide 39 = target: T13, IL-13 16 mer peptide 39; assay: 16 mer peptide ELISA; peptide 39
# IL-13 16 mer peptide 11 = target: T14, IL-13 16 mer peptide 11; assay: 16 mer peptide ELISA; peptide 11
# IL-13 16 mer peptide 12 = target: T15, IL-13 16 mer peptide 12; assay: 16 mer peptide ELISA; peptide 12
# IL-13 16 mer peptide 21 = target: T16, IL-13 16 mer peptide 21; assay: 16 mer peptide ELISA; peptide 21
# IL-13 16 mer peptide 41 = target: T17, IL-13 16 mer peptide 41; assay: 16 mer peptide ELISA; peptide 41
# IL-13 16 mer peptide 27 = target: T18, IL-13 16 mer peptide 27; assay: 16 mer peptide ELISA; peptide 27
# IL-13 16 mer peptide 36 = target: T19, IL-13 16 mer peptide 36; assay: 16 mer peptide ELISA; peptide 36
# IL-13 16 mer peptide 40 = target: T20, IL-13 16 mer peptide 40; assay: 16 mer peptide ELISA; peptide 40
# IL-13 16 mer peptide 29 = target: T21, IL-13 16 mer peptide 29; assay: 16 mer peptide ELISA; peptide 29
# IL-13 16 mer peptide 17 = target: T22, IL-13 16 mer peptide 17; assay: 16 mer peptide ELISA; peptide 17
# IL-13 16 mer peptide 2 = target: T23, IL-13 16 mer peptide 2; assay: 16 mer peptide ELISA; peptide 2
# IL-13 16 mer peptide 16 = target: T24, IL-13 16 mer peptide 16; assay: 16 mer peptide ELISA; peptide 16
# IL-13 16 mer peptide 31 = target: T25, IL-13 16 mer peptide 31; assay: 16 mer peptide ELISA; peptide 31
# IL-13 16 mer peptide 30 = target: T26, IL-13 16 mer peptide 30; assay: 16 mer peptide ELISA; peptide 30
# IL-13 16 mer peptide 14 = target: T27, IL-13 16 mer peptide 14; assay: 16 mer peptide ELISA; peptide 14
# IL-13 16 mer peptide 22 = target: T28, IL-13 16 mer peptide 22; assay: 16 mer peptide ELISA; peptide 22
# IL-13 16 mer peptide 15 = target: T29, IL-13 16 mer peptide 15; assay: 16 mer peptide ELISA; peptide 15
# IL-13 16 mer peptide 7 = target: T30, IL-13 16 mer peptide 7; assay: 16 mer peptide ELISA; peptide 7
# IL-13 16 mer peptide 19 = target: T31, IL-13 16 mer peptide 19; assay: 16 mer peptide ELISA; peptide 19
# IL-13 16 mer peptide 28 = target: T32, IL-13 16 mer peptide 28; assay: 16 mer peptide ELISA; peptide 28
# IL-13 16 mer peptide 10 = target: T33, IL-13 16 mer peptide 10; assay: 16 mer peptide ELISA; peptide 10
# IL-13 16 mer peptide 32 = target: T34, IL-13 16 mer peptide 32; assay: 16 mer peptide ELISA; peptide 32
# IL-13 16 mer peptide 35 = target: T35, IL-13 16 mer peptide 35; assay: 16 mer peptide ELISA; peptide 35
# IL-13 16 mer peptide 6 = target: T36, IL-13 16 mer peptide 6; assay: 16 mer peptide ELISA; peptide 6
# IL-13 16 mer peptide 13 = target: T37, IL-13 16 mer peptide 13; assay: 16 mer peptide ELISA; peptide 13
# IL-13 16 mer peptide 4 = target: T38, IL-13 16 mer peptide 4; assay: 16 mer peptide ELISA; peptide 4
binder,measurement,setting,value
"mouse monoclonal antibody 6A1 (antibody, mouse IgG1, V domains shown) VH: EIQLQQSVAELVRPGASVRLSCTASGFYIKDTYMHWVIQRPEQGLEWIGTIDPANGNTKYVPKFQGKATITADTSSNTAYLRLSSLTSEDTAIYYCARSIYDDYHYDDYYAMDYWGQGTSVTVSS VL: DVLMTQTPLSLPVSLGDQASISCRSSQNIVHINGNTYLEWYLQKPGQSPKLLIYKISDRFSGVPDRFSGSGSGTDFTLKISRVEAEDLGVYYCFQGSHVPWTFGGGTKLEIK",absorbance at 490 nm,IL-13 16 mer peptide 18,0.073 A490 and 0.09 A490
same,absorbance at 490 nm,IL-13 16 mer peptide 8,0.084 A490 and 0.071 A490
same,absorbance at 490 nm,IL-13 16 mer peptide 38,0.067 A490 and 0.056 A490
same,absorbance at 490 nm,IL-13 16 mer peptide 20,0.06 A490 and 0.104 A490
same,absorbance at 490 nm,IL-13 16 mer peptide 37,0.068 A490 and 0.063 A490
same,absorbance at 490 nm,IL-13 16 mer peptide 42,0.104 A490 and 0.108 A490
same,absorbance at 490 nm,IL-13 16 mer peptide 23,0.144 A490 and 0.135 A490
same,absorbance at 490 nm,IL-13 16 mer peptide 33,0.088 A490 and 0.084 A490
same,absorbance at 490 nm,IL-13 16 mer peptide 5,0.063 A490 and 0.065 A490
same,absorbance at 490 nm,IL-13 16 mer peptide 9,0.061 A490 and 0.07 A490
same,absorbance at 490 nm,IL-13 16 mer peptide 3,0.067 A490 and 0.07 A490
same,absorbance at 490 nm,IL-13 16 mer peptide 34,0.082 A490 and 0.067 A490
same,absorbance at 490 nm,IL-13 16 mer peptide 39,0.057 A490 and 0.055 A490
same,absorbance at 490 nm,IL-13 16 mer peptide 11,0.064 A490 and 0.061 A490
same,absorbance at 490 nm,IL-13 16 mer peptide 12,0.075 A490 and 0.062 A490
same,absorbance at 490 nm,IL-13 16 mer peptide 21,0.061 A490 and 0.078 A490
same,absorbance at 490 nm,IL-13 16 mer peptide 41,0.058 A490
same,absorbance at 490 nm,IL-13 16 mer peptide 27,0.06 A490 and 0.082 A490
same,absorbance at 490 nm,IL-13 16 mer peptide 36,0.073 A490 and 0.074 A490
same,absorbance at 490 nm,IL-13 16 mer peptide 40,0.06 A490
same,absorbance at 490 nm,IL-13 16 mer peptide 29,0.098 A490 and 0.071 A490
same,absorbance at 490 nm,IL-13 16 mer peptide 17,0.064 A490 and 0.06 A490
same,absorbance at 490 nm,IL-13 16 mer peptide 2,0.057 A490 and 0.068 A490
same,absorbance at 490 nm,IL-13 16 mer peptide 16,0.099 A490 and 0.141 A490
same,absorbance at 490 nm,IL-13 16 mer peptide 31,0.064 A490 and 0.056 A490
same,absorbance at 490 nm,IL-13 16 mer peptide 30,0.062 A490
same,absorbance at 490 nm,IL-13 16 mer peptide 14,0.119 A490 and 0.115 A490
same,absorbance at 490 nm,IL-13 16 mer peptide 22,0.09 A490 and 0.076 A490
same,absorbance at 490 nm,IL-13 16 mer peptide 15,0.081 A490 and 0.129 A490
same,absorbance at 490 nm,IL-13 16 mer peptide 7,0.061 A490 and 0.072 A490
same,absorbance at 490 nm,IL-13 16 mer peptide 19,0.077 A490 and 0.063 A490
same,absorbance at 490 nm,IL-13 16 mer peptide 28,0.074 A490 and 0.078 A490
same,absorbance at 490 nm,IL-13 16 mer peptide 10,0.075 A490 and 0.064 A490
same,absorbance at 490 nm,IL-13 16 mer peptide 32,0.071 A490 and 0.057 A490
same,absorbance at 490 nm,IL-13 16 mer peptide 35,0.089 A490 and 0.09 A490
same,absorbance at 490 nm,IL-13 16 mer peptide 6,0.072 A490 and 0.075 A490
same,absorbance at 490 nm,IL-13 16 mer peptide 13,0.066 A490 and 0.063 A490
same,absorbance at 490 nm,IL-13 16 mer peptide 4,0.079 A490 and 0.105 A490
